The record followed here is paper PMC6426973, “Oligomeric self-association contributes to E2A-PBX1-mediated oncogenesis”.

For this data set, the target named is T1, E2A-PBX1 ΔPBC-B (MBP fusion) (UniProt P15923 1-483+P40424:232-430, internal_change).
T1 sequence: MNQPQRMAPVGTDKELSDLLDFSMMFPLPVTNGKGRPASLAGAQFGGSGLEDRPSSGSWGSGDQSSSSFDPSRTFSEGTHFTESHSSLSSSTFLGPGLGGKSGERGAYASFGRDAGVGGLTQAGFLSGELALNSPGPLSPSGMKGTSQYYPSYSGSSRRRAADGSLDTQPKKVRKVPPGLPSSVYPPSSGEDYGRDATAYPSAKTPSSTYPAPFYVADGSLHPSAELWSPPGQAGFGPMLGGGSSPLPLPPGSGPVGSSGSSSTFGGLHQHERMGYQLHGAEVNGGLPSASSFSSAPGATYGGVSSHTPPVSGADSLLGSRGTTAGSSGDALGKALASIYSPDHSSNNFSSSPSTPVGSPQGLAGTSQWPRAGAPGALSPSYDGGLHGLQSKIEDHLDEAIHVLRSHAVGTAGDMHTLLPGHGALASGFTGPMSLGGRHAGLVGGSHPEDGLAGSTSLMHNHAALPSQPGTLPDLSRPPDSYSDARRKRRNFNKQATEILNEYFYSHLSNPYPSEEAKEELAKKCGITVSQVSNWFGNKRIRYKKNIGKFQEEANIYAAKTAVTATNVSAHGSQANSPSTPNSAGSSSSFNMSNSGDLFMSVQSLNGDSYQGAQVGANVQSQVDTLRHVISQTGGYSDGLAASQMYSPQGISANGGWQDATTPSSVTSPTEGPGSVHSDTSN
The data set is described as follows: EMSA; LightShift Chemiluminescent EMSA kit (manufacturer's conditions), room temperature 20 min, 5% TBE gel in 0.5X TBE; salt and pH not stated. The settings on record: protein: recombinant; tags: MBP; label: biotin (end label); blunt.

B1: PBX1 consensus site oligonucleotide (dsDNA)
DNA 1: TGATTGATTGATTGAT
DNA 2: ATCAATCAATCAATCA
Take B1: the binding result is on record as “no binding”.
